Legend:
[1] = system: T1, HcdR2 (LuxR family regulator) (Streptomyces mobaraensis US-43), ORF:dfa86b54; assay: competition; conditions: EMSA: 10 mM Tris-HCl, 50 mM KCl, 1 mM DTT, pH 7.5 (1x of 10x buffer), 20 fmol probe in 20 uL, 25-2000 nM protein, room temperature 20 min; native 5% gel, 0.5x …
T1 sequence: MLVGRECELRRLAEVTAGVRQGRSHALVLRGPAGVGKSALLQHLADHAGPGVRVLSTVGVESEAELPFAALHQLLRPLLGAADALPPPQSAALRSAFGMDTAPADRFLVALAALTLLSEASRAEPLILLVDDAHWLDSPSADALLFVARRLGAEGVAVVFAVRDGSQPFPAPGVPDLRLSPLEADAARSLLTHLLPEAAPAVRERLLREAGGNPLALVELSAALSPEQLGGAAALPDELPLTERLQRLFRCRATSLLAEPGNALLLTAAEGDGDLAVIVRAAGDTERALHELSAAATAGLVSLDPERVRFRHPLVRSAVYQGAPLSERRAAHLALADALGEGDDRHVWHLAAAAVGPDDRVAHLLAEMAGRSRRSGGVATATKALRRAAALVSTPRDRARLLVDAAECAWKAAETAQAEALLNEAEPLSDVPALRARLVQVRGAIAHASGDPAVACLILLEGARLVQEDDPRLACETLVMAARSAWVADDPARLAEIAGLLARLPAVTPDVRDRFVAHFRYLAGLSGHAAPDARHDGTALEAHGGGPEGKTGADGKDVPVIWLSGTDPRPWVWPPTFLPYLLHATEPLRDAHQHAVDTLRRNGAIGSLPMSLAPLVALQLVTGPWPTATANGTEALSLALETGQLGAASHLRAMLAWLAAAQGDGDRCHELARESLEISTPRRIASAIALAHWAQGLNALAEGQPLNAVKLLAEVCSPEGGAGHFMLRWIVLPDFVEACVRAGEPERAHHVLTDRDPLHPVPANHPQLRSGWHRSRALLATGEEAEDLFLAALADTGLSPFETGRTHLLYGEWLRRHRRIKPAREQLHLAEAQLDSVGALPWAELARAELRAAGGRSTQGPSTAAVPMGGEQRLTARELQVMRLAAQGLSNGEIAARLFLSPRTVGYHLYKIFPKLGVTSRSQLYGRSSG

[2] = system: T1, HcdR2 (LuxR family regulator) (Streptomyces mobaraensis US-43), ORF:dfa86b54; assay: EMSA; conditions: EMSA: 10 mM Tris-HCl, 50 mM KCl, 1 mM DTT, pH 7.5 (1x of 10x buffer), 20 fmol probe in 20 uL, 25-2000 nM protein, room temperature 20 min; native 5% gel, 0.5x …

Row | Sequence | binding [1] | binding [2]
1 | CGCGCCCAGCGGCCAGGTGGGCCGTTGCGCCAGGCGGGCGGCCGCCACCCCCGCAGTGCCAGGGGCAGTCCGCCGCACAGCTCGGCCAGCCGTCGCGCAGC (double strand) [hcdR1p] | no binding | –
2 | CTCTTCGCGGGGAGAGAGCGGCCGGTCGCGGCACGGCGAGCCTATGAAGATCGACACGGCCGCCCCACCCCCTACGACCCCTACGAACCCCTGTCCCCTACCGGCGCGGCAGGGGACAGGGGTTCGTAGGGGTCGTAGGGGGTGGGGGGCCGCCGGACGATCTTCATAGGCTCGCTCTCGATCGGAGACGGCCCTCGCAGCCGTGTCCCCGGCAACCCGGACTTCTCGCGGACCGGCCGCCCCCAGGCCGACCCCCCTACTCGATCCACGACGAGAAAGAGGTT (double strand) [V2 Bp] | binds | –
3 | GATTCAGCCAAGTGACCCCGCAAGAAGCCTCGTTCGCGAACGGTCCCTGAGCCCGCGCCCGCGCCGCACCCGCGGACCATCCGCCGAACGGCCGGGCCGCCCGTACGGTCTGGAGAGCGCCACGGCGTGCGGGTCCCGGTGGTGGGCCACGGCGCGGCCGACCCGTCAGGTGTTTCCGGGAGGCCGCGCCGCGGAGGGCACGCACGTCCGTGGCGGGACCGGGGGACGGGAGACGGCGTGGCGCCGCGTCATGGTCGTCCGGCGCCTCGATGCCGTCACGGCGCAGGGCGGGCCCGCCGG (double strand) [hcdT-1p] | – | no binding

— paper PMC6794829
